Source: patent publication US20240376151A1, “STAPLED PEPTIDES AND METHODS THEREOF” (FOG PHARMACEUTICALS, INC., priority 2022, published 2024)
Ends that are not written are not given here.

Target: T1, RNF31 PUB domain (Homo sapiens, UniProt Q96EP0)
T1 construct: MBP-TEV (N, cleaved yes); made in house; host or cells: E. coli BL21 (DE3) pLysS
T1 sequence (Q96EP0 1-179): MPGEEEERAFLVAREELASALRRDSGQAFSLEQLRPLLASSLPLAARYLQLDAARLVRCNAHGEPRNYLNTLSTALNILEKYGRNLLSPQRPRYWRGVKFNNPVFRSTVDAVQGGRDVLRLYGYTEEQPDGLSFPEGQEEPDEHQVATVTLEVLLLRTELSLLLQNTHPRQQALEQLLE
Test: Phage Library Screening with NGS, RNF31 PUB domain
Format: binding
Conditions: for Phage library screen NGS readout, Target Concentration 10 / Phage library screen NGS readout, Target Concentration 30 / Phage library screen NGS readout, Target Concentration 100 / Phage library screen NGS readout, Target Concentration 300 / Phage library screen NGS readout, Target Concentration 1000: RNF31 PUB domain clusters C41-C45; for Phage library screen NGS readout, BLANK: clusters C41-C45

[1] = target concentration 1000, first column
[2] = target concentration 1000, second column

Sequence	Phage library screen NGS readout, Target Concentration 10	Phage library screen NGS readout, Target Concentration 30	Phage library screen NGS readout, Target Concentration 100	Phage library screen NGS readout, Target Concentration 300	Phage library screen NGS readout, Target Concentration 1000 [1]	Phage library screen NGS readout, Target Concentration 1000 [2]	Phage library screen NGS readout, BLANK (column 1 of 5)	Phage library screen NGS readout, BLANK (column 2 of 5)	Phage library screen NGS readout, BLANK (column 3 of 5)	Phage library screen NGS readout, BLANK (column 4 of 5)	Phage library screen NGS readout, BLANK (column 5 of 5)
DPAMQDCQLAALVCTTY	0	1	0	1	6	6	0	0	0	0	0
DPAMQECMDAAIMCTYA	0	0	0	4	14	8	0	2	0	0	0
DPAQDWCMYAAYECDAH	0	0	0	2	7	9	0	0	2	1	1
DPAQEACWDAAIMCTYR	0	0	0	29	56	80	0	0	0	0	0
DPAQEECFEAAVFCSYY	2	0	2	7	36	20.49	0	0	0	0	1
DPAQYQCDIAAQVCSTY	0	0	0	4	12	10	0	0	0	0	0
DPAQYQCWNAAMSCSYS	1	1	3	3	7	4	1	0	0	3	2
DPASEWCLDAAVLCTYS	0	0	3	18	63	65	2	0	0	0	0

Next, values leading:

Phage library screen NGS readout, Target Concentration 10	Phage library screen NGS readout, Target Concentration 30	Phage library screen NGS readout, Target Concentration 100	Phage library screen NGS readout, Target Concentration 300	Phage library screen NGS readout, Target Concentration 1000 [1]	Phage library screen NGS readout, Target Concentration 1000 [2]	Phage library screen NGS readout, BLANK (column 1 of 5)	Phage library screen NGS readout, BLANK (column 2 of 5)	Phage library screen NGS readout, BLANK (column 3 of 5)	Phage library screen NGS readout, BLANK (column 4 of 5)	Phage library screen NGS readout, BLANK (column 5 of 5)	Sequence
0	1	0	4	8	12	0	2	1	0	0	DPALWDCLYAADACITS (not fully specified; cysteine pairing not given here)
1	1	0	6	18	16	2	1	0	1	1	DPAMEWCWDAAVFCTYS
0	0	0	1	6	6	0	0	0	0	0	DPAMIDCFLAAQVCATY (not fully specified; cysteine pairing not given here)
0	0	3	3	26	12	0	0	1	0	0	DPANFTCRVAADVCSTY
0	0	0	22	44	37	0	0	1	0	0	DPAQDQCISAAVLCTYT
1	1	1	5	6	8	3	2	0	1	0	DPAQHECIYAAWDCDML
0	0	0	3	5	5	0	0	0	0	0	DPAQMECIDAAIMCSYT
0	0	4	61	350	353	1	0	3	1	0	DPARDWCLYAAYDCYTA (Ac-DPARDWCLYAAYDCYTA-NH2; not fully specified (bridges); cysteine pairing not given here)
0	0	1	12	40	44	0	0	1	0	0	DPARRECWDAAILCTYY
